Measurements: article PMC1891289, “Improvement of activity and stability of chloroperoxidase by chemical modification” (BMC Biotechnology, 2007)

Experiments:
purified protein [1] = substrate: CSc1ccccc1; experiment: purified protein; format: biochemical, Leptoxyphium fumago; conditions: 50 mM sodium citrate pH 5.0, 300 μM H2O2, room temperature, apparent, native enzyme
purified protein [2] = substrate: Oc1ccccc1; experiment: purified protein; format: biochemical, Leptoxyphium fumago; conditions: 50 mM sodium citrate pH 5.0, 0.2 mM H2O2, 2.4 mM 4-aminoantipyrine, 30 °C in methods (room temperature in text), apparent, native enzyme

B1: Chloroperoxidase (CPO) (Leptoxyphium fumago) (protein)
chain: QEPGSGIGYPYDNNTLPYVAPGPTDSRAPCPALNALANHGYIPHDGRAISRETLQNAFLNHMGIANSVIELALTNAFVVCEYVTGSDCGDSLVNLTLLAEPHAFEHDHSFSRKDYKQGVANSNDFIDNRNFDAETFQTSLDVVAGKTHFDYADMNEIRLQRESLSNELDFPGWFTESKPIQNVESGFIFALVSDFNLPDNDENPLVRIDWWKYWFTNESFPYHLGWHPPSPAREIEFVTSASSAVLAASVTSTPSSLPSGAIGPGAEAVPLSFASTMTPFLLATNAPYYAQDPTLGPND
notes: not chemically modified
- Km (purified protein [1]): 1640 ± 90 µM
- Km (purified protein [2]): 350 ± 10 µM
